1 substance from paper doi:10.1101/2021.05.06.443019 can be followed below.

This experiment deals with ovine rBAT (purified with b^0,+AT) (ovine). Briefly: cryo-EM structure.

The substance “ovine rBAT (purified with b^0,+AT) (from UniProt A0ACI6R3A5 1-685) (natural protein)” gave a stoichiometry N of 2.

For orientation: stoichiometry N means a count of units in the complex or per binding partner.
